Read-outs that look alike come from different tables or passages of the source.

Consider three substances from patent publication US20180142222.

The target in data set [1] is Cas9HNH (Cy3/Cy5-labelled reporter Cas9; dCas9HNH for binding data) C80S,C574S,S355C,S867C (Streptococcus pyogenes) (UniProt Q99ZW2). The settings on record: direct binding assay estimate.
Data set [2] addresses Cas9hinge (Cy3/Cy5-labelled reporter Cas9) C80S,C574S,D435C,E945C (Streptococcus pyogenes) (UniProt Q99ZW2). As to conditions: bound but (ratio)A indistinguishable from apo.

For the substance “full-length sgRNA ; PAM-distal mismatch DNA”, the binding in data set [1] ((ratio)A falls with mismatch number, dCas9 gives stable footprint on these substrates) was greater than 89 % bound.
As to full-length sgRNA ; on-target DNA, the binding in data set [1] (large FRET increase on target DNA) was greater than 89 % bound.
For the substance sgRNA delta-spacer1-20, in data set [2], the binding is greater than 95 % bound.
